Measurements reported in publication PMC8666677 (The Journal of Biological Chemistry, 2021).
No end group written: not given here. fl = not defined here

T1: ClpS adapter (E. coli, UniProt P0A8Q6 1-106)
T1 sequence: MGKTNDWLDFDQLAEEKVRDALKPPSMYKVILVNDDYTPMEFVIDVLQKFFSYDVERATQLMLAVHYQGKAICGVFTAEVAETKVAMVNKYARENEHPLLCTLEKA


Legend:
[1] = biological target: ^D1-3YAClpA^xl (cross-linked ClpA pseudohexamer with alternating WT and defective D1 pore loops) (E. coli) (UniProt P0ABH9)
ClpS adapter = biological target: T1, ClpS adapter; assay: fluorescence polarisation

Molecule	KM of ClpAP degradation of ^UFtitin-ssrA, against ClpA^xl [1] [fold]	binding result (ClpS adapter)
^UFtitin-ssrA (ssrA-tagged titin^I27 domain unfolded by chemical modification of its two partially buried cysteines) (domain or fragment)	3	
LLYVQRDSKEC-fl (reading uncertain; also: printed as LLYVQRDSKEC-fl) [LLYVQRDSKEC-fl fluorescent N-degron peptide]		binds
